Laboratory results published in patent US20150166643A1 (Alexion, published 2015).

Assays:
[1] = biological target: T1, human factor B (purified, Complement Technology A135) (human, UniProt P00751 26-764); assay: ELISA, plate coated with human factor B, anti-human kappa light chain HRP
T1 construct: also called fB; human complement factor B
Method: The binding activities of these mAbs towards factor B were analyzed by ELISA using standard protocols. In one exemplary experiment, MaxiSorp™ ELISA plates (Nunc, #439454, Rochester, N.Y.) were coated with 50 μL of human factor B (Complement Technology, A135, 1 mg/mL, lot 14c) at a concentration of 0.5 μg/mL in carbonate coating buffer (0.795 g carbonate+1.46 g bicarbonate+1 mL 1% NaN₃ (final concentration of 0.002%) in 500 mL water, pH 9.6 (lot 02 August 10)). Plates then were covered with plate sealers and incubated at 37±1° C. for one hour. Following coating, wells were emptied of reagent and washed in a BioTek® ELx405 plate washer (BioTek, Winooski, Vt.) for three times with 200 μL wash solution (PBS/0.05% Tween 20) per well. Following washes, wells were blocked with 100 μL of BSA (1% w/v) and incubated for one hour at room temperature. Wells were then washed again as described above. Fifty microliter samples (i.e., TA106 Fab, CLS011 mAb, CLS012 mAb, and CLS013 mAb) were then added to wells and incubated for one hour at room temperature. […] The plate was read on a Benchmark™ microplate reader (Bio-Rad Laboratories, Hercules, Calif.) at 450 nm. Standard curves were plotted with 4 parameter fit with DeltaSoft® 1.6 software, and sample concentrations were determined from the standard curves.

[2] = biological target: T1, human factor B (purified, Complement …); assay: BLI (Octet), biotinylated factor B on streptavidin biosensor, Fab at 50 nM
Method: (§1) Binding kinetics of TA106 and TA106 S33A Fab (CLS016) to Factor B were analyzed using a FortéBio® Octet® biosensor (FortéBio, Inc.) in a similar protocol as described previously. In one exemplary experiment, Factor B (Complement Technology) was biotinylated at a 1:10 ratio and coupled to a streptavidin biosensor at a concentration of 5 μg/mL for a loading time of 600 seconds. Biosensors were briefly dipped in 1×KB as a wash for 30 seconds. Associations with a titration series of Fab with a concentration range from 100 to 3 nM (diluted in 1×KB) were carried out for 600 seconds. Fabs were dissociated from the biosensor by immersing the biosensor in 1×KB during the 600 second dissociation phase. As depicted in FIGS. 19 and 20, both TA106 Fab and TA106-derivative S33A Fab (CLS016) bound to Factor B at various concentrations, resulting in nearly identical association and dissociation profiles. Kinetic assessments using partial local fit parameters yielded identical values for KD/kₐ/Kd at each concentration tested.

[3] = biological target: T1, human factor B (purified, Complement …); assay: BLI (Octet), biotinylated factor B on streptavidin biosensor, Fab at 12.5 nM
Method: as §1

[4] = biological target: T1, human factor B (purified, Complement …); assay: BLI (Octet), biotinylated factor B on streptavidin biosensor, Fab at 3.13 nM
Method: as §1

[5] = biological target: T1, human factor B (purified, Complement …); assay: BLI (Octet), biotinylated factor B on streptavidin biosensor, Fab at 6.25 nM
Method: as §1

[6] = biological target: T1, human factor B (purified, Complement …); assay: SPR (Biacore), factor B directly bound to the chip at low coverage, TA106 Fab flowed over
Description: (§2) The difference in the two Biacore data sets could be explained as either that the conformation of factor B changes when binding to the surface or that not all commercial factor B is active. This later Biacore experiment (with a fixed concentration of factor B bound to the chip) removed the factor B concentration from the calculation.

[7] = biological target: T1, human factor B (purified, Complement …); assay: SPR (Biacore), TA106 Fab captured on anti-Fab surface, soluble factor B 3.1-100 nM flowed; Chi2 0.206
Description: Binding kinetics of TA106 Fab and variant S33A Fab (CLS016) were further characterized using Surface Plasmon Resonance (SPR) technology. In one exemplary experiment, both Fabs were captured on chips of a Biacore 3000 analyzer and samples of human factor B of different concentrations were flowed as the antigen over the surface to model soluble human factor B binding, using protocols recommended by the manufacturer and described previously in the instant disclosure. […] In another exemplary experiment, the affinities of both Fabs were also measured by reversing the orientation of the previous experiment. Specifically, human factor B was directly coupled to one flow cell of a CM5 chip. The second flow cell was used as a blank reference with no coupled ligand. CLS016 or TA106 Fab was then flowed on both flow cells. Concentrations between 0.19 to 25 nM were run with duplicates. The surface was regenerated between each cycle.

[8] = biological target: T1, human factor B (purified, Complement …); assay: SPR (Biacore), factor B bound directly to the chip, free TA106 Fab flowed; Chi2 0.901 (the text rounds to 1.4 nM)
Description: as §2

T1 sequence (P00751 26-764): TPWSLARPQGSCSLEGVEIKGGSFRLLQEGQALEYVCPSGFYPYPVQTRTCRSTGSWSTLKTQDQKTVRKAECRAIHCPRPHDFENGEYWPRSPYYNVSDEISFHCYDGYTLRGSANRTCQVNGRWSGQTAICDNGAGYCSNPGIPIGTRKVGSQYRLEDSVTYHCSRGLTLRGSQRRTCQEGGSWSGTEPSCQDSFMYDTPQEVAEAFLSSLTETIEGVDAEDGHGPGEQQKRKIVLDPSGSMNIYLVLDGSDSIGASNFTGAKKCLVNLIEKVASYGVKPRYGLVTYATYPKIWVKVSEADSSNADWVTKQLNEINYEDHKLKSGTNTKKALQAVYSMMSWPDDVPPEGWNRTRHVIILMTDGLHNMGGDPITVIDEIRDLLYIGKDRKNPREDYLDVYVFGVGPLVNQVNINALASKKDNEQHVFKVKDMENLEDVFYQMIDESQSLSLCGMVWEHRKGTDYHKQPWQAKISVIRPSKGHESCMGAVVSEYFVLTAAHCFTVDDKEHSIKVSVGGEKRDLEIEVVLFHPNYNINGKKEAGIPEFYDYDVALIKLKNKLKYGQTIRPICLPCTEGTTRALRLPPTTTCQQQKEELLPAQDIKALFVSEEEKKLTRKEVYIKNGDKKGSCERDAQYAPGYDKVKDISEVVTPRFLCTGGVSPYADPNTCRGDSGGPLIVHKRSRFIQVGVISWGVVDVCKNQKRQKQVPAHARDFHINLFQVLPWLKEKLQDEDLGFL

EC50 [1]: 0.57 nM
Kd [2]: 22.7 nM
koff [2]: 0.0039 s⁻¹
kon [2]: 172000 M⁻¹ s⁻¹
Kd [3]: 29.8 nM
koff [3]: 0.00324 s⁻¹
kon [3]: 109000 M⁻¹ s⁻¹
Kd [4]: 32.3 nM
koff [4]: 0.00239 s⁻¹
kon [4]: 74000 M⁻¹ s⁻¹
Kd [5]: 41.6 nM
koff [5]: 0.00294 s⁻¹
kon [5]: 70600 M⁻¹ s⁻¹
Kd [6]: 1.4 nM
koff [7]: 0.00338 s⁻¹
kon [7]: 136000 M⁻¹ s⁻¹
Kd [8]: 1.39 nM
B1: TA106 Fab (humaneered anti-factor B Fab, expressed in E. coli) (Fab, V domains shown)
VH: QVQLVQSGAEVKKPGASVKVSCKASGYSFTDYYMTWVRQAPGQGLEWMGWINPNSGGTKYAQKFQGRVTMTRDTSISTAYMELSRLRSDDTAVYYCARGYYANSAWFAYWGQGTLVTVSS
VL: DIVMTQSPDSLAVSLGERATINCKSSQSLLNSSTSKNYLAWYQQKPGQPPKLLIYWASTRESGVPDRFSGSGSGTDFTLTISSLQAEDVAVYYCKQVYNLPWTFGQGTKLEIKR
notes: Fab made in E. coli by Xoma, not glycosylated; also called Fab TA106; TA106 wild type Fab
